Test results from article PMC11610669, “A Spectroscopic Study on the Amyloid‐β Interaction with Clicked Peptide‐Porphyrin Conjugates: a Vision Toward the Detection of Aβ Peptides in Aqueous Solution” (Chembiochem, 2024).
Entries after “also recorded” stand apart in the source; their conditions may differ.

How the values were obtained:
[1] = Porphyrin fluorescence in buffer; assay type: physicochemical; details: 5 μM, 10 mM phosphate buffer pH 7.4, excitation 425 nm; vs pristine MCPTPyP
Text: (§1) Peptide conjugation influences the spectral features of the porphyrin chromophore as evidenced by the red shift in the absorption maximum in the region of the Soret band region. The Q bands are also affected, particularly in the Cu‐Ph‐Pep and Zn‐Ph‐Pep compounds (Figure 1). In this case the presence of a metal ion within the porphyrin's core might contribute to the observed spectral profile of these compounds. […] The fluorescence spectra of the investigated systems were also acquired in view of the interaction of the studied conjugates with cells (see below biological section).[41] The fluorescence spectra were recorded with the photoexcitation at 425±5 nm, in 10 mM phosphate buffer pH 7.4 and 5 μM concentration. The emission spectrum of the porphyrin precursor MCPTPyP ( Ph ) was also obtained for the sake of comparison.
Spectra were recorded on a Horiba Fluoro‐max‐4 spectrofluorometer from 440–800 nm in 1 nm steps, at an excitation wavelength λexc=425 nm, at room temperature. The final fluorescence spectra represent averages of at least three measurements. Bandwidths of 5 nm for both excitation and emission were used. The sample of the compound used to record absorption spectra were the same as those for the CD spectra.

[2] = UV-Vis self-aggregation of the conjugates; assay type: physicochemical; details: UV-Vis 300–650 nm, 5 μM, 10 mM phosphate buffer pH 7.4, room temperature, 0–120 h
Description: We first studied the effects of peptide conjugation on the porphyrin chromophore, by UV‐Vis spectra in the region between 300–650 nm. The spectra were recorded using a solution of 5 μM Porphyrin‐peptide conjugate in 10 mM phosphate buffer pH 7.4. The UV‐Vis profile of the porphyrin precursor MCPTPyP, recorded at the same concentration, is also shown for the sake of comparison (Figure 1).
as §1
(§2) Spectra were recorded on a Jasco V‐670 Spectrophotometer at room temperature. All measurements were performed in the 300–650 nm wavelength region, in a 10 mM phosphate buffer solution at pH 7.4 using a 1 cm path length quartz cell. The spectra of all the peptide‐porphyrin conjugates, either in the absence or in the presence of equimolar Aβ42, were acquired at 5 μM. In some cases, the same sample solution was used to run the CD spectra. The final concentrations of Aβ42 and peptide conjugates were 5 μM (1 : 1 molar ratio).

[3] = CD control: β-sheet propensity of the conjugates alone; assay type: physicochemical; details: 10 mM phosphate buffer pH 7.4, room temperature, up to 120 h
Description: (§3) The UV‐Vis spectra of porphyrin‐peptide conjugates (5 μM) were recorded in the presence of an equimolar ration of Aβ42 monomers at 0, 24, 48 and 120 h (Figure 2S). […] Therefore, the interaction of the peptide‐porphyrin conjugates with Aβ was further studied using CD spectroscopy. The Aβ42 aggregation process was monitored either in the absence or in the presence of an equimolar amount of the conjugated peptides. A series of CD control experiments were preventively carried out to assess the propensity of the porphyrin‐peptide conjugates to adopt a β‐sheet conformation. The corresponding CD curves are shown in the supplementary material (Figure 3S). […] We then evaluated the ability of the porphyrin‐peptide conjugates to affect the Aβ42’s aggregation process. This was accomplished by running a series of CD experiments on the binary systems in the same experimental conditions as the control CD measurements. A 5 μM Aβ42 sample was used as a positive control of the aggregation process (Figure 3, panel a). In this case, the curve profiles indicate that at 0 h, Aβ42 is predominantly in the random coil conformation, as evidenced by the negative ellipticity around 200 nm. […] The typical dichroic profile characterized by a negative ellipticity at λ=222 nm and a positive band at λ=200 is indicative of this event (Figure 3, panel a).
Spectra were recorded on a J‐810 spectrometer (Jasco, Japan) under a constant flow of N2 at room temperature. The CD measurements were performed in the wavelength regions (190–260 nm, 195–350 nm and 350–500 nm) using a 1 cm path length quartz cell. All aggregation kinetics were monitored up to 120 hours. The CD spectra were recorded for Aβ42 (5 μM and 20 μM) monomer in the absence or in the presence of porphyrin‐peptide conjugates (5 μM and 20 μM for the 1 : 1 molar ratios). Monomerized samples of Aβ42 (5 μM and 20 μM) were solubilized in 50 μL of NaOH 20 mM (2,5 %) and after were diluted with 1950 μL of 10 mM phosphate buffer at pH 7.4 pure or containing the solubilized conjugates.

[4] = biological target: T1, Aβ42 (Homo sapiens, UniProt P05067); assay: UV-Vis of conjugates with equimolar Aβ42; assay type: biochemical; details: 5 μM conjugate, equimolar Aβ42, 10 mM phosphate buffer pH 7.4, 0, 24, 48 and 120 h
T1 sequence (P05067 672-713 limits assumed): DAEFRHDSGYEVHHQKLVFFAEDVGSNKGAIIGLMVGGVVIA
Description: as §3, §2

[5] = biological target: T1, Aβ42; assay: Grating-Coupled Interferometry (GCI) binding to immobilized Aβ42; details: GCI fit quality parameter
Description: The Grating‐Coupled Interferometry (GCI) is a widely used analytical technique for characterizing intermolecular interactions. It allows quantitative measurements of both the affinity and the kinetics of the binding events. This high sensitivity label‐free method was exploited to measure the interactions of Aβ42 with Cu‐Ph‐Pep , Ph‐Pep , and Zn‐Ph‐Pep (Figure 5S). Control experiments with pristine MCPTPyP and the peptide GPGKLVFF ( Pep ) were carried out for comparison. The calculated association and dissociation kinetic constants (kon and koff, respectively) and the thermodynamic binding constant (KD), are summarized in Table 1. The obtained values indicate that all the conjugates show good affinities with Aβ42. It is also clear from Table 1 that the peptide moiety is fundamental for the molecular recognition of the Aβ42 peptide.[48] […] Nevertheless, it is important to emphasize that the interaction with Aβ42 is primarily mediated by the peptide rather than by the porphyrin macrocycle. We next investigated whether these peptide derivatives could be employed as molecular probes for the detection of Aβ42 aggregated species. A new set of CD experiments was then carried out with Aβ42 at 20 μM both in the absence and in the presence of the porphyrin‐peptide conjugates at 1 : 1 molar ratio in the UV (195–350) and Visible (350–500) regions. […] The signal rapidly evolved toward the typical β‐sheet profile (already within 24 h) with a single minimum at 216 nm, an x‐axis intercept at 202 nm and a maximum shift at a wavelength 195 nm.[49] […] For the sake of comparison, the CD spectra of the porphyrin‐peptide conjugates at 20 μM were also recorded in the same experimental conditions, both in the far‐UV and Visible regions (Figure 6S).
The experiments were performed on a Creoptix WAVE system (Creoptix). Borate buffer (100 mM sodium borate pH 9.0, 1 M NaCl) was used for chip conditioning. Aβ42 peptide (20 μg/ml in Na Acetate pH 4.5) was immobilized on 4PCH WAVE chips (quasiplanar polycarboxylate surface; Creoptix) according to the manufacturer instructions at a final density of 1910±40 pg/mm^2. Single‐cycle sequential injections of dilution series for each Porphyrin‐Peptide conjugates in running buffer (PBS, 0.005 % Tween 20, 1 % DMSO, 0.2 mg/ml BSA) were performed at 25 °C, using a flow rate of 100 μl/min. In details, for the conjugate Cu‐Ph‐Pep , 1 : 2 dilution series starting from 200 μM were injected for 10 s association time, 45 s dissociation time, followed by a dissociation time of 600 s for the last higher concentration injection. Finally, for the conjugates Ph‐Pep and Zn‐Ph‐Pep , 1 : 2 dilution series starting from 50 μM and 100 uM, respectively, were injected for 30 s association time, 45 s dissociation time, followed by a dissociation time of 600 s for the last higher concentration injection. Blank injections were used for double referencing and a DMSO calibration curve for bulk correction. Analysis and correction of the obtained data were performed using the Creoptix WAVE control software (correction applied: X and Y offset; DMSO calibration; double referencing). Mass transport binding models with bulk correction were used to fit all experiments. All the experiments have been performed at least in triplicate.
Figure 5S. Quantitative binding kinetics of Aβ42 vs a) MCPTPyP; b) Cu-Ph-Pep; c) Ph-Pep; d) Zn-Ph-Pep; and e) Pep measured by GCI. All curves were blank subtracted. Experiments were performed in triplicate. All the quality assessments (i.e., χ2 shown in Table 1 of the main text , parameter errors, and residual plots were acceptable; the sensorgrams had sufficient curvatures an d the kinetic constant k off were within the measurable range) were fulfilled. Descriptive Statistical Analysis was employed to calculate the mean of the obtained values of k on, koff and KD as a measure of central tendency and standard deviations of the former values were computed as a measure of dispersion.
Figure 6S. […]

[6] = system: full-length Aβ; details: ref [44], [45]; cited from earlier work
Text: In the present work we employed UV‐Vis, CD spectroscopy and Bis‐Ans fluorescence to explore the molecular processes underlying the interactions occurring between Aβ and the porphyrin‐peptide conjugates.

Row | Compound | fluorescence emission intensity [1] | self-aggregation [2] | propensity to adopt β-sheet conformation (conjugate alone) [3] | UV-Vis spectral change in presence of Aβ42 [4] | χ^2 (average of the squared residuals, fitting confidence) [5] | recognition of full-length Aβ [6]
1 | COC(=O)[C@H](Cc1cn(CCCC[C@H](NC(=O)CNC(C)=O)C(=O)N2CCC[C@H]2C(=O)NCC(=O)N[C@@H](CCCCN)C(=O)N[C@@H](CC(C)C)C(=O)N[C@H](C(=O)N[C@@H](Cc2ccccc2)C(=O)N[C@@H](Cc2ccccc2)C(N)=O)C(C)C)nn1)NC(=O)c1ccc(-c2c3nc(c(-c4cc[n+](C)cc4)c4ccc([nH]4)c(-c4cc[n+](C)cc4)c4nc(c(-c5cc[n+](C)cc5)c5ccc2[nH]5)C=C4)C=C3)cc1 [Cu‐Ph‐Pep] | not fluorescent | absence of significant self‐aggregation phenomena | can fairly adopt β‐sheet conformation over time | minor variations in the spectral profiles; also recorded: observable absorbance diminution | 0.76±0.07 | 
2 | COC(=O)[C@H](Cc1cn(CCCC[C@H](NC(=O)CNC(C)=O)C(=O)N2CCC[C@H]2C(=O)NCC(=O)N[C@@H](CCCCN)C(=O)N[C@@H](CC(C)C)C(=O)N[C@H](C(=O)N[C@@H](Cc2ccccc2)C(=O)N[C@@H](Cc2ccccc2)C(N)=O)C(C)C)nn1)NC(=O)c1ccc(-c2c3nc(c(-c4cc[n+](C)cc4)c4ccc([nH]4)c(-c4cc[n+](C)cc4)c4nc(c(-c5cc[n+](C)cc5)c5ccc2[nH]5)C=C4)C=C3)cc1 [Ph‐Pep] | somewhat decreased | absence of significant self‐aggregation phenomena | can fairly adopt β‐sheet conformation over time | minor variations in the spectral profiles | 0.71±0.04 | 
3 | KLVFF [well-known hydrophobic core Aβ16–20 (KLVFF)] |  |  |  |  |  | can recognize and co‐assemble with full‐length Aβ
